In this assay the target is NF-κB activator 1 (Act1) (UniProt Q8N7N6). The assay can be described thus: co-immunoprecipitation (anti-Myc IP, Western blot, ImageJ densitometry). Particulars: IL-17RA-deficient MEFs reconstituted by retroviral infection; treated with IL-17 for 10 min; parent: 100. For orientation: In western blotting, separated proteins are transferred to a membrane and probed.
Chain of NF-κB activator 1 (Act1) (Q8N7N6 whole entry): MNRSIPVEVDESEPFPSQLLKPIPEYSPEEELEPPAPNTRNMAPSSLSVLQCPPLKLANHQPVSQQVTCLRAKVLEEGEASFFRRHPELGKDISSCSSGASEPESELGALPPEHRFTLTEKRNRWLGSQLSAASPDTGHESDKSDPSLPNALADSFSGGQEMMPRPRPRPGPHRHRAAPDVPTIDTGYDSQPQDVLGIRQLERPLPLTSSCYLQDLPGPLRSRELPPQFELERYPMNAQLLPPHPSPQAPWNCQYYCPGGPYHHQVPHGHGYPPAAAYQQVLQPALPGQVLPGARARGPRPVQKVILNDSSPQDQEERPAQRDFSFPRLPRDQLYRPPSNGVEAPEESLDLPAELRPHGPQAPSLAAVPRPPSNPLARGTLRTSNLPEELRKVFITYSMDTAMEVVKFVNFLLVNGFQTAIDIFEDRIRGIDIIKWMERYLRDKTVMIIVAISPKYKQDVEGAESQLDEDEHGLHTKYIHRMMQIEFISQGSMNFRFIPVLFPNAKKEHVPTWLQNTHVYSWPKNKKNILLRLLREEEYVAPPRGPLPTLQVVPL

Chain of Myc-tagged mouse IL-17RA (Q60943 32-864, stated change not applied): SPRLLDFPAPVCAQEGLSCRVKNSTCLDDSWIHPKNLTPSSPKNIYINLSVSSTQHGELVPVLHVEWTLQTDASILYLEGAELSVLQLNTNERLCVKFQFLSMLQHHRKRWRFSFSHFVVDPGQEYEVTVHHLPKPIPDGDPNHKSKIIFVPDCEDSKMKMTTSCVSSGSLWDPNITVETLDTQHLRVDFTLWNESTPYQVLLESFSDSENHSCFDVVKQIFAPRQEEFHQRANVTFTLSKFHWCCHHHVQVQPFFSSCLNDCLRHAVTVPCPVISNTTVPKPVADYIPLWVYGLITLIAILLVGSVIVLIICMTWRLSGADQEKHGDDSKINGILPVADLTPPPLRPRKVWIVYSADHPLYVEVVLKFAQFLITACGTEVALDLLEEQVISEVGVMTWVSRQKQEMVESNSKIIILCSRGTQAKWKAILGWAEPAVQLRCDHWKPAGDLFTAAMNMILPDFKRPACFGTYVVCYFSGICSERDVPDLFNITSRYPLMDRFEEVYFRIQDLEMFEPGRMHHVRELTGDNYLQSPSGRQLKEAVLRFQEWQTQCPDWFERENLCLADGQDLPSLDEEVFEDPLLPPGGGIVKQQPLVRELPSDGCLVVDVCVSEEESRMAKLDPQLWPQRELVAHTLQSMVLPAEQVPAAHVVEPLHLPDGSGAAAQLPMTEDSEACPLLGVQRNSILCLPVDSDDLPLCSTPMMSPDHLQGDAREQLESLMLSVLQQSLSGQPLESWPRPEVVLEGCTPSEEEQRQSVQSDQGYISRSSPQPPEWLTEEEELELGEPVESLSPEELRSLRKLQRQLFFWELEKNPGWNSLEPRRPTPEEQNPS

Regarding “Myc-tagged mouse IL-17RA (from UniProt Q60943) T483A; N488A; M489A”, the percent of parent came out at 31.

Values taken from paper PMC4014126 (2014).
